The record followed here is article PMC3597821.

One series concerns the target DmAgo1 WT (Drosophila melanogaster, UniProt A1Z9J5 1-950). Kind of series: filter binding.
Another series addresses T1, DmAgo2 (Drosophila melanogaster, UniProt Q9VUQ5 403-1214).
T1 sequence: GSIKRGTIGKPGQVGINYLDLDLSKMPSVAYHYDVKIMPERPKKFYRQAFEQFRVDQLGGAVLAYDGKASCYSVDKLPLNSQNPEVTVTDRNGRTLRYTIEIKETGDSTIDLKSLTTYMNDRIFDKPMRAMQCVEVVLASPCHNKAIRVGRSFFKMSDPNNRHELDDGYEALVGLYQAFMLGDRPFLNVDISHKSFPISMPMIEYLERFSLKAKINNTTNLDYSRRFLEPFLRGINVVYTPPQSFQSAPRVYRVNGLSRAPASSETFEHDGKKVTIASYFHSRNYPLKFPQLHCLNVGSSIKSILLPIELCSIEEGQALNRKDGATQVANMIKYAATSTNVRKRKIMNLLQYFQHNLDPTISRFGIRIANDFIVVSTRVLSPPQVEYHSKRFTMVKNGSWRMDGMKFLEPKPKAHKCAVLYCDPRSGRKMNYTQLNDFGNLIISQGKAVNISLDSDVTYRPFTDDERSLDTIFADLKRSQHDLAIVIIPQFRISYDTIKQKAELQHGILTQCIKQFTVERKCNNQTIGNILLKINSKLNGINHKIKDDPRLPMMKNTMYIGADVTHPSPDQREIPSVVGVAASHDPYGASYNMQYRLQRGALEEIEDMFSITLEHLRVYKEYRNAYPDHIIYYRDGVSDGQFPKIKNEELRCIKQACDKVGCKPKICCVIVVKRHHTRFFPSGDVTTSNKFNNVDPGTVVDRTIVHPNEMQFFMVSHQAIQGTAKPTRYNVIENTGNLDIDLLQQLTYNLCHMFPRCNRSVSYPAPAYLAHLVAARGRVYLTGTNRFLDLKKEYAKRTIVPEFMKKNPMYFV
The series can be described thus: competitive double filter binding.

B1: bantam guide / 43-nt target (1-12 match) (dsRNA)
RNA 1: UGAGAUCAUUUUGAAAGCUGAUU
RNA 2: AGUUCUUAAGUUAGUCGAAACAAAAUGAUCUCACAUAGGCUUA
modifications: target printed as DNA letters, assayed as RNA
Take B1: in the series with DmAgo1 WT, the binding result is reported as “binds”. In general, Kd refers to the equilibrium constant for the complex coming apart. A higher Kd goes with weaker binding. Regarding UGAGAUCAUUUUGAAAGCUGAUU (ssRNA, 5' phosphate on labeled RNA (PNK)) [bantam miRNA 23 nt], in the series with DmAgo2, the Kd was 0.0107 ± 0.001 µM.
